Assay [1] deals with mouse B6 class I antigens (D^b or K^b molecules on the surface of RMA-S cells) (mouse (C57Bl/6)). Briefly: binding of 9mer peptides within p117-139 to mouse B6 (H-2^b) class I, RMA-S assay as in Example 4.
Assay [2] has the same target. Briefly: RMA-S class I stabilisation, peptide 25 ug/ml, flow cytometry with FITC anti-D^b or anti-K^b.

Chain of mouse B6 class I antigens (D^b or K^b molecules on the surface of RMA-S cells) (mouse (C57Bl/6)) (P01899 25-362, chain 1 of 2): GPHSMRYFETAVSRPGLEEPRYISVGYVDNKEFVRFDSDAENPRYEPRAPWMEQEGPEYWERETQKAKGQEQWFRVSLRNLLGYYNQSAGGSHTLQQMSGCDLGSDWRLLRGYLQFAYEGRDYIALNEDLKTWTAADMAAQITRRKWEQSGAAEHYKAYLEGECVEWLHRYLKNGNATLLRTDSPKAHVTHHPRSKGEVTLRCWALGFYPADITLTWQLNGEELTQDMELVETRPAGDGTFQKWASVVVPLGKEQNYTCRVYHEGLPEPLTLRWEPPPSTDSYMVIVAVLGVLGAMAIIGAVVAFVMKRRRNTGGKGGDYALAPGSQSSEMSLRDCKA
Chain of mouse B6 class I antigens (D^b or K^b molecules on the surface of RMA-S cells) (mouse (C57Bl/6)) (P01887 21-119, chain 2 of 2, further chain): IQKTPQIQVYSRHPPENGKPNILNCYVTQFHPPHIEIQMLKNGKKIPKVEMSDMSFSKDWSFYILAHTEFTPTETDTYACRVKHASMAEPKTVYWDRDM

QASSGQARM [WT1 peptide P119-127 …]: in assay [1], the Binding Affinity to Mouse MHC Class I was found to be 2%.

QARMFPNAP [WT1 peptide P124-132 …]: the Binding Affinity to Mouse MHC Class I in assay [1] turned out to be 1%.

In assay [1], ARMFPNAPY [WT1 peptide P125-133 …] showed a Binding Affinity to Mouse MHC Class I of 1%.

MFPNAPYLP [WT1 peptide P127-135 …] showed a Binding Affinity to Mouse MHC Class I in assay [1] of 2%.

PSQASSGQA [WT1 peptide P117-125 …]: the Binding Affinity to Mouse MHC Class I in assay [1] worked out at 2%.

On to ASSGQARMF [WT1 peptide P120-128 …], for which the Binding Affinity to Mouse MHC Class I in assay [1] stood at 1%.

CMTWNQMNL [WT1 peptide p235-243 …] gave a Binding Affinity to Mouse MHC Class I (% increase of D^b or K^b on RMA-S cells) in assay [2] of 33.6%.

Take SCLESQPAI [WT1 peptide human p136-144 …]: the Binding Affinity to Mouse MHC Class I (% increase of D^b or K^b on RMA-S cells) in assay [2] came out at 52%.

In assay [2], ALLPAVPSL [WT1 peptide human p10-18 …] came in with a Binding Affinity to Mouse MHC Class I (% increase of D^b or K^b on RMA-S cells) of 2.2%.

Molecule FPNAPYLPS [WT1 peptide P128-136 …] had a Binding Affinity to Mouse MHC Class I in assay [1] of 1%.

In assay [2], QMTSQLECM [WT1 peptide p228-236 …] registered a Binding Affinity to Mouse MHC Class I (% increase of D^b or K^b on RMA-S cells) of 1.2%.

In assay [1], NAPYLPSCL [WT1 peptide P130-138 …] showed a Binding Affinity to Mouse MHC Class I of 79%.

In assay [2], NLYQMTSQL [WT1 peptide p225-233 …] had a Binding Affinity to Mouse MHC Class I (% increase of D^b or K^b on RMA-S cells) of 5.8%.

Take SSGQARMFP [WT1 peptide P121-129 …]: the Binding Affinity to Mouse MHC Class I in assay [1] was determined as 1%.

Consider GCNKRYFKL [WT1 peptide p329-337 …], for which, in assay [2], the Binding Affinity to Mouse MHC Class I (% increase of D^b or K^b on RMA-S cells) was determined as 1.2%.

In assay [2], NQMNLGATL [WT1 peptide p239-247 …] returned a Binding Affinity to Mouse MHC Class I (% increase of D^b or K^b on RMA-S cells) of 1%.

YSSDNLYQM [WT1 peptide p221-229 …]: in assay [2], the Binding Affinity to Mouse MHC Class I (% increase of D^b or K^b on RMA-S cells) was found to be 0.8%.

With SQASSGQAR [WT1 peptide P118-126 …], the Binding Affinity to Mouse MHC Class I in assay [1] stood at 2%.

For APYLPSCLE [WT1 peptide P131-139 …], in assay [1], the Binding Affinity to Mouse MHC Class I was found to be 1%.

With PNAPYLPSC [WT1 peptide P129-137 …], the Binding Affinity to Mouse MHC Class I in assay [1] was 1%.
